According to PMC9482650, “Quantitative fragmentomics allow affinity mapping of interactomes” (Nature Communications, 2022):

How the values were obtained:
Experiment in all cases: holdup assay
Parameters in all cases: key: below the threshold = too weak to quantify, mostly under pKd 3.1 to 4
FRMPD3, Q5JV73 = target: FRMPD3, Q5JV73
LIN7B, Q9HAP6 = target: T1, LIN7B, Q9HAP6
T1 sequence (Q9HAP6 88-185, limits assumed, looked up): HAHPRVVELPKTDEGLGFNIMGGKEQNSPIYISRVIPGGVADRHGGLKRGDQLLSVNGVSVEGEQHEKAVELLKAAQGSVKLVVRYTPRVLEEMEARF

DLG2_2, Q15700 = target: DLG2_2, Q15700
DLG2_2, Q15700, sequence (Q15700 189-283): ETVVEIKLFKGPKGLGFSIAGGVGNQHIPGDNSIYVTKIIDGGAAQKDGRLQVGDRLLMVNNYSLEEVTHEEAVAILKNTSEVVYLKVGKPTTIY

APBA3_1, O96018 = target: T2, APBA3_1, O96018
T2 sequence (O96018 389-490, limits assumed, looked up): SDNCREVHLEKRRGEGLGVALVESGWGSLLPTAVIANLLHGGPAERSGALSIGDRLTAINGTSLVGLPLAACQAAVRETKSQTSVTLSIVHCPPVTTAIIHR

HTRA3, P83110 = target: T3, HTRA3, P83110
T3 sequence (P83110 354-453, limits assumed, looked up): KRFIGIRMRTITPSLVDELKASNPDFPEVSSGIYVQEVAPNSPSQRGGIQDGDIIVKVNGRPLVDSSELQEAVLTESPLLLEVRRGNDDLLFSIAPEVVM

HTRA1, Q92743 = target: HTRA1, Q92743
HTRA1, Q92743, sequence (Q92743 360-477): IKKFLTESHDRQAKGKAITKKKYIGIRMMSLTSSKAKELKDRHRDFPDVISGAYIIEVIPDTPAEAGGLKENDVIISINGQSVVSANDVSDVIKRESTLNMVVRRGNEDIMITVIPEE

GRIP1_4, Q9Y3R0 = target: T4, GRIP1_4, Q9Y3R0
T4 sequence (Q9Y3R0 467-571, limits assumed, looked up): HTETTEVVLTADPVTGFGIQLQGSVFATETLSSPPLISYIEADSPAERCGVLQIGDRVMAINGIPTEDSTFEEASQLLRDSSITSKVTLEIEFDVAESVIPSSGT

APBA2_2, Q99767 = target: T5, APBA2_2, Q99767
T5 sequence (Q99767 654-744, limits assumed, looked up): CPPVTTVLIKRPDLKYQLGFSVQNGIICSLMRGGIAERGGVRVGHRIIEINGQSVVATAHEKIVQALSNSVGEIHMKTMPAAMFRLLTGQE

IL16_4, Q14005 = target: IL16_4, Q14005
IL16_4, Q14005, sequence (Q14005 1229-1329): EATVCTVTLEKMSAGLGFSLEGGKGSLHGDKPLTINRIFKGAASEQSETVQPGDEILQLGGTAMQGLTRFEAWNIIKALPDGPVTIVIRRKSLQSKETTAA

MPDZ_5, O75970 = target: T6, MPDZ_5, O75970
T6 sequence (O75970 695-796, limits assumed, looked up): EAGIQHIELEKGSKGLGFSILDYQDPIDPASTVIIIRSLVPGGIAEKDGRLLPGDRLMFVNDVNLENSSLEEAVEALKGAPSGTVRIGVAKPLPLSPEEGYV

NHERF3_3, Q5T2W1 = target: T7, NHERF3_3, Q5T2W1
T7 sequence (Q5T2W1 238-333, limits assumed, looked up): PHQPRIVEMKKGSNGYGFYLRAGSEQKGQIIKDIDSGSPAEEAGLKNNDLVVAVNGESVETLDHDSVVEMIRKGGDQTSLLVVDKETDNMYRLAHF

PDZRN4_1, Q6ZMN7 = target: PDZRN4_1, Q6ZMN7
PDZRN4_1, Q6ZMN7, sequence (Q6ZMN7 213-318): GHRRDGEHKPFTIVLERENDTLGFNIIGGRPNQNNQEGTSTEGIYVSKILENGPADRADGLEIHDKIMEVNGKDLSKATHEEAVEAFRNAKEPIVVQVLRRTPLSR

DLG4_2, P78352 = target: DLG4_2, P78352
DLG4_2, P78352, sequence (P78352 155-259): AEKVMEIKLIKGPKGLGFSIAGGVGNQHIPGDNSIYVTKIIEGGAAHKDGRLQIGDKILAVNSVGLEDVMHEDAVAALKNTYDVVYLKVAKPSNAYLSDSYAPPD

PDZD7_3, Q9H5P4 = target: T8, PDZD7_3, Q9H5P4
T8 sequence (Q9H5P4 857-944, limits assumed, looked up): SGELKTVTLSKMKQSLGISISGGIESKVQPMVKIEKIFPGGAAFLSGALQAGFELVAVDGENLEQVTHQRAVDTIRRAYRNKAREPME

DLG1_1, Q12959 = target: DLG1_1, Q12959
ARHGEF12, Q9NZN5-2 = target: ARHGEF12, Q9NZN5-2
ARHGEF12, Q9NZN5-2, sequence (Q9NZN5 other isoform, or with tags, fused parts or gaps): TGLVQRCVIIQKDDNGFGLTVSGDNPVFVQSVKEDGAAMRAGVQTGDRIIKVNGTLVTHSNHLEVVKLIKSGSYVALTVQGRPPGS

Inadl_5, Q8NI35 = target: Inadl_5, Q8NI35
Inadl_5, Q8NI35, sequence (Q8NI35 673-780): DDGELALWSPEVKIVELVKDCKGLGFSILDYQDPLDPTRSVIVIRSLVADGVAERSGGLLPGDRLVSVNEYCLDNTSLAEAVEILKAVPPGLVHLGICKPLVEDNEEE

LDB3, O75112 = target: LDB3, O75112
LDB3, O75112, sequence (O75112 1-94): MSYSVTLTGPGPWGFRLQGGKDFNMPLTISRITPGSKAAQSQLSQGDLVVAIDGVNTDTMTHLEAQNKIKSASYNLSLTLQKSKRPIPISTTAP

LNX1_3, Q8TBB1 = target: LNX1_3, Q8TBB1
LNX1_3, Q8TBB1, sequence (Q8TBB1 500-596): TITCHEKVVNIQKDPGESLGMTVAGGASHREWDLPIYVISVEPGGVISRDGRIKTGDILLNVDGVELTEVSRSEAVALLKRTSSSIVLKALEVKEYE

Inadl_10, Q8NI35 = target: Inadl_10, Q8NI35
Inadl_10, Q8NI35, sequence (Q8NI35 1673-1763): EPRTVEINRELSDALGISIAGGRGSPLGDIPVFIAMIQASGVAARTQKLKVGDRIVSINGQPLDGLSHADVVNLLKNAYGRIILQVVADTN

LIN7C, Q9NUP9 = target: T9, LIN7C, Q9NUP9
T9 sequence (Q9NUP9 88-185, limits assumed, looked up): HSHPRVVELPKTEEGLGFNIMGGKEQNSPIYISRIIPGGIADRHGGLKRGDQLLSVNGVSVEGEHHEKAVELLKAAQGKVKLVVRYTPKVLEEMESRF

DLG4_3, P78352 = target: DLG4_3, P78352
DLG4_3, P78352, sequence (P78352 306-403): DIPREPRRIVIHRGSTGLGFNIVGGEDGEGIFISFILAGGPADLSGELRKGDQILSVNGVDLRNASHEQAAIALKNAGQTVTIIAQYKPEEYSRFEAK

PDLIM1, O00151 = target: PDLIM1, O00151
PDLIM1, O00151, sequence (O00151 1-87): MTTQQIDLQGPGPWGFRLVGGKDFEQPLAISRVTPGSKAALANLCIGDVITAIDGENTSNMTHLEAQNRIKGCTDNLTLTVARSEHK

MAGI2_4, Q86UL8 = target: MAGI2_4, Q86UL8
MAGI2_4, Q86UL8, sequence (Q86UL8 772-865): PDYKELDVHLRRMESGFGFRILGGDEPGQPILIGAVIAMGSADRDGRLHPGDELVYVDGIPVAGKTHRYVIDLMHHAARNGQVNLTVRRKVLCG

AHNAK1, Q09666 = target: AHNAK1, Q09666
AHNAK1, Q09666, sequence (Q09666 4-100): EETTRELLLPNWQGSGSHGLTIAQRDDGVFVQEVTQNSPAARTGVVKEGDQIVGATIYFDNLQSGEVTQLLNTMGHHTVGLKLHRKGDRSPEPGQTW

GRIP2_7, Q9C0E4 = target: GRIP2_7, Q9C0E4
GRIP2_7, Q9C0E4, sequence (Q9C0E4 934-1023): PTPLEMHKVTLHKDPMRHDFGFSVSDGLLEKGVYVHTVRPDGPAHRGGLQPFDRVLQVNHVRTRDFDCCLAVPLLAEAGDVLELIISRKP

MAGI2_3, Q86UL8 = target: MAGI2_3, Q86UL8
MAGI2_3, Q86UL8, sequence (Q86UL8 600-682): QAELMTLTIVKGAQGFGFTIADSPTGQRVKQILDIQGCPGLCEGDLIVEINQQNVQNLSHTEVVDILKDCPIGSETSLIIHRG

IL16_1, Q14005 = target: IL16_1, Q14005
IL16_1, Q14005, sequence (Q14005 210-306): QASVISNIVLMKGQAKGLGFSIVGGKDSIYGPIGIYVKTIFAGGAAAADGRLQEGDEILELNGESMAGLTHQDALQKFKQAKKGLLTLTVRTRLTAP

LAP2, Q96RT1 = target: LAP2, Q96RT1
LAP2, Q96RT1, sequence (Q96RT1 other isoform, or with tags, fused parts or gaps): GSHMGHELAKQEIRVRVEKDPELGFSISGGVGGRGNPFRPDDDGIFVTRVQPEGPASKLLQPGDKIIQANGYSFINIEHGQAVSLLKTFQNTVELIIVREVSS

[1] = plain residues with an end cap or a label only (N-terminal biotin on a linker: ado-ado)
[2] = plain residues with an end cap or a label only (N-terminal biotin on a linker: (peg)3)

FRMPD3, Q5JV73, sequence (Q5JV73 12-100): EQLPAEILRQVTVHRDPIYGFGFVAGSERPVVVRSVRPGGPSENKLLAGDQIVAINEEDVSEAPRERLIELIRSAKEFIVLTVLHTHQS

DFRHKSSFVI [JAM3, Q9BX67] was tested, and the pKd (FRMPD3, Q5JV73; [1]) was “below the threshold”, the pKd (LIN7B, Q9HAP6; [1]) was 3.82 and the pKd (DLG2_2, Q15700; [1]) was “below the threshold”. For the same binder, the pKd (APBA3_1, O96018; [1]) was “below the threshold”, the pKd (HTRA3, P83110; [1]) was 3.89 and the pKd (HTRA1, Q92743; [1]) was 4.64. For the same binder, the pKd (GRIP1_4, Q9Y3R0; [1]) was “below the threshold”, the pKd (APBA2_2, Q99767; [1]) was “below the threshold” and the pKd (IL16_4, Q14005; [1]) was “below the threshold”. The pKd (MPDZ_5, O75970; [1]) was “below the threshold”, the pKd (NHERF3_3, Q5T2W1; [1]) was “below the threshold” and the pKd (PDZRN4_1, Q6ZMN7; [1]) was “below the threshold”. The pKd (DLG4_2, P78352; [1]) was “below the threshold”, the pKd (PDZD7_3, Q9H5P4; [1]) was 4.85 and the pKd (DLG1_1, Q12959; [1]) was “below the threshold”. For the same binder, the pKd (ARHGEF12, Q9NZN5-2; [1]) was “below the threshold”, the pKd (Inadl_5, Q8NI35; [1]) was “below the threshold” and the pKd (LDB3, O75112; [1]) was 3.76. For the same binder, the pKd (LNX1_3, Q8TBB1; [1]) was “below the threshold”, the pKd (Inadl_10, Q8NI35; [1]) was “below the threshold” and the pKd (LIN7C, Q9NUP9; [1]) was 3.93. For the same binder, the pKd (DLG4_3, P78352; [1]) was “below the threshold”, the pKd (PDLIM1, O00151; [1]) was “below the threshold” and the pKd (MAGI2_4, Q86UL8; [1]) was “below the threshold”. For the same binder, the pKd (AHNAK1, Q09666; [1]) was “below the threshold”, the pKd (GRIP2_7, Q9C0E4; [1]) was “below the threshold” and the pKd (MAGI2_3, Q86UL8; [1]) was “below the threshold”. For the same binder, the pKd (IL16_1, Q14005; [1]) was “below the threshold” and the pKd (LAP2, Q96RT1; [1]) was “below the threshold”.

For YDEPTTTTSVPL [SARS-Cov2-3a, P0DTC3], the pKd (FRMPD3, Q5JV73; [2]) was “below the threshold”, the pKd (LIN7B, Q9HAP6; [2]) was “below the threshold” and the pKd (DLG2_2, Q15700; [2]) was “below the threshold”. The pKd (APBA3_1, O96018; [2]) was “below the threshold”, the pKd (HTRA3, P83110; [2]) was “below the threshold” and the pKd (HTRA1, Q92743; [2]) was “below the threshold”. For the same binder, the pKd (GRIP1_4, Q9Y3R0; [2]) was “below the threshold”, the pKd (APBA2_2, Q99767; [2]) was “below the threshold” and the pKd (IL16_4, Q14005; [2]) was “below the threshold”. For the same binder, the pKd (MPDZ_5, O75970; [2]) was “below the threshold”, the pKd (NHERF3_3, Q5T2W1; [2]) was “below the threshold” and the pKd (PDZRN4_1, Q6ZMN7; [2]) was “below the threshold”. For the same binder, the pKd (DLG4_2, P78352; [2]) was “below the threshold”, the pKd (PDZD7_3, Q9H5P4; [2]) was “below the threshold” and the pKd (DLG1_1, Q12959; [2]) was “below the threshold”. The pKd (ARHGEF12, Q9NZN5-2; [2]) was “below the threshold”, the pKd (Inadl_5, Q8NI35; [2]) was “below the threshold” and the pKd (LDB3, O75112; [2]) was “below the threshold”. For the same binder, the pKd (LNX1_3, Q8TBB1; [2]) was “below the threshold”, the pKd (Inadl_10, Q8NI35; [2]) was “below the threshold” and the pKd (LIN7C, Q9NUP9; [2]) was “below the threshold”. For the same binder, the pKd (DLG4_3, P78352; [2]) was “below the threshold”, the pKd (PDLIM1, O00151; [2]) was “below the threshold” and the pKd (MAGI2_4, Q86UL8; [2]) was “below the threshold”. The pKd (AHNAK1, Q09666; [2]) was 3.77, the pKd (GRIP2_7, Q9C0E4; [2]) was “below the threshold” and the pKd (MAGI2_3, Q86UL8; [2]) was “below the threshold”. For the same binder, the pKd (IL16_1, Q14005; [2]) was “below the threshold” and the pKd (LAP2, Q96RT1; [2]) was “below the threshold”.
